The values that follow come from publication PMC6800875, “Codon harmonization reduces amino acid misincorporation in bacterially expressed P. falciparum proteins and improves their immunogenicity” (AMB Express, 2019).

Series [1] concerns the molecule itself. Kind of series: SEC; calibrated Superdex G-200 column, PBS pH 7.4, 0.5 mL/min, 4 °C; three standards (66, 29, 12.4 kDa); oligomer size estimated from the elution volume.
Series [2] concerns the molecule itself. Kind of series: SDS-PAGE with western blot (band that resists denaturation); purified protein, untreated or incubated at 37 °C or 65 °C for 1, 4 and 24 h, on 4-20% Tris-glycine SDS-PAGE; blots probed with anti-His mAb and mAb 3D11.D4. On the technique in general: A western blot detects proteins with antibodies after separation by electrophoresis.

The term stoichiometry N denotes a count of units in the complex or per binding partner.

B1: histidine tag-free CH-PfCelTOS (natural protein)
chain: GTFRGNNGHNSSSSLYNGSQFIEQLNNSFTSAFLESQSMNKIGDDLAETISNELVSVLQKNSPTFLESSFDIKSEVKKHAKSMLKELIKVGLPSFENLVAENVKPPKVDPATYGIIVPVLTSLFNKVETAVGAKVSDEIWNYNSPDVSESEESLSDDFFD
notes: two non-native amino acid residues introduced by cloning; the chain is 161 residues long, so one more residue stands before them; begins at F R G and holds 158 PfCelTOS residues; natural residue numbering; Made from the CH-PfCelTOS clone by replacing the His-tag linker; this is surmised; also called His-tag free PfCelTOS; Histidine tag-free PfCelTOS; source: E. coli, purified (Q-Sepharose twice, …)
As to B1, the “stoichiometry N” value in series [1] was around 4.

B2: N-PfCelTOS (P. falciparum cell-traversal protein for ookinetes and sporozoites, expressed from the native codon sequence) (natural protein)
chain: FRGNNGHNSSSSLYNGSQFIEQLNNSFTSAFLESQSMNKIGDDLAETISNELVSVLQKNSPTFLESSFDIKSEVKKHAKSMLKELIKVGLPSFENLVAENVKPPKVDPATYGIIVPVLTSLFNKVETAVGAKVSDEIWNYNSPDVSESEESLSDDFFD
notes: begins at F R G and holds 158 PfCelTOS residues; 174 residues in all with the 16 amino acid linker; natural residue numbering; also called N-protein; source: E. coli B834 (DE3), purified (Ni-NTA, Q-Sepharose); not shown: His6 (within a 16 amino acid linker), N-terminal, kept
In the case of B2, the “stoichiometry N” value in series [1] was around 3; in series [2], around 2.

B3: CH-PfCelTOS (P. falciparum cell-traversal protein for ookinetes and sporozoites, expressed from the codon harmonized sequence) (natural protein, UniProt Q8I5P1 25-182, looked up)
chain: FRGNNGHNSSSSLYNGSQFIEQLNNSFTSAFLESQSMNKIGDDLAETISNELVSVLQKNSPTFLESSFDIKSEVKKHAKSMLKELIKVGLPSFENLVAENVKPPKVDPATYGIIVPVLTSLFNKVETAVGAKVSDEIWNYNSPDVSESEESLSDDFFD
notes: begins at F R G and holds 158 PfCelTOS residues; 174 residues in all with the 16 amino acid linker; natural residue numbering; also called CH-protein; source: E. coli B834 (DE3), purified (Ni-NTA, Q-Sepharose); not shown: His6 (within a 16 amino acid linker), N-terminal, kept
For the protein B3, the “stoichiometry N” value in series [1] was around 4; in series [2], around 2.
